Source: the supplement of paper PMC7877785
± gives the uncertainty stated by the source.

Assay: self-splicing fitness, log relative to wild type (ln ratio); higher = more splicing; Tetrahymena group I intron in knt gene, E. coli kanamycin selection, DiMSum; sequences stand for … in CUCUCU…GGAGGGAAAAGUUAUCAGGCAUGCACCUGGUAGCUAGUCUUUAAACCAAUAGAUUGCAUCGGUUUAAAAGGCAAGACCGUCAAAUUGCGGGAAAGGGGUCAACAGCCGUUCAGUACCAAGUCUCAGGGGAAACUUUGAGAUGGCCUUGCAAAGGGUAUGGUAAUAAGCUGACGGACAUGGUCCUAACCACGCAGCCAAGUCCUAAGUCAACAGAUCUUCUGUUGAUAUGGAUGCAGUUCACAGACUAAAUGUCGGUCGGGGAAGAUGUAUUCUUCUCAUAAGAUAUAGUCGGACCUCUCCUUAAUGGGAGCUAGCGGAUGAAGUGAUGCAACACUGGAGCCGCUGGGAACUAAUUUGUAUGCGAAAGUAUAUUGAUUAGUUUUGGAGUACUCGUGGUCG
How it was run: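 Colonies from six replicate transformations of E. coli BL21(DE3) were pooled and amplicon-sequenced on an Illumina HiSeq 2500. The library placed an intron with all eight P1ex-region nucleotides randomised inside the knt kanamycin-resistance gene on pET-22b(+), and cells grew overnight at 37°C or 30°C on LB agar with or without 25 μg/mL kanamycin (plus 100 μg/mL carbenicillin, 50 μM IPTG, 0.2% rhamnose). Fitness is the DiMSum error-weighted combination of wild-type-normalised replicate fold changes, kanamycin versus none.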

Sequence | self-splicing fitness (ln) (30 °C) | self-splicing fitness (ln) (37 °C)
GGUGAGCAAUAUUACGGUUC | -1.21 ± 0.23 | -0.574 ± 0.4
GGUGAGCAAUAUUACGUACC | -3.31 ± 0.44 | -1.75 ± 0.37
GGUGAGCAAUAUUACGUAUG | -3.26 ± 0.47 | -0.0178 ± 0.18
GGUGAGCAAUAUUACGUCCC | -2.23 ± 0.39 | 
GGUGAGCAAUAUUACGUCGA | -3.18 ± 0.31 | -2.42 ± 0.28
GGUGAGCAAUAUUACGUGAC | -3.14 ± 0.22 | -0.938 ± 0.22
GGUGAGCAAUAUUACGUUGC | -3.27 ± 0.35 | 
GGUUAGCAAUAUUACGAACG | -0.128 ± 0.21 | -0.629 ± 0.44
GGUUAGCAAUAUUACGAACU | -1.88 ± 0.27 | -0.492 ± 0.34
GGUUAGCAAUAUUACGAGCG | -0.684 ± 0.12 | -0.0379 ± 0.12
GGUUAGCAAUAUUACGAGGA | -3.3 ± 0.29 | -1.96 ± 0.24
GGUUAGCAAUAUUACGAUCU | -1.04 ± 0.24 | -0.76 ± 0.24
GGUUAGCAAUAUUACGAUGG | -1.88 ± 0.23 | -1.16 ± 0.24
GGUUAGCAAUAUUACGAUUA | -0.191 ± 0.13 | 0.0365 ± 0.12
GGUUAGCAAUAUUACGCACG | -0.656 ± 0.11 | -0.507 ± 0.13
GGUUAGCAAUAUUACGCAGU | -1.5 ± 0.27 | -1.67 ± 0.3
GGUUAGCAAUAUUACGCCAU | -1.39 ± 0.38 | 
GGUUAGCAAUAUUACGCCCU | -0.754 ± 0.45 | -0.983 ± 0.48
GGUUAGCAAUAUUACGCGAU | -2.48 ± 0.23 | -3.48 ± 0.46
GGUUAGCAAUAUUACGCGUC | -1.53 ± 0.2 | -1.04 ± 0.18
GGUUAGCAAUAUUACGCGUG | -0.908 ± 0.051 | -0.592 ± 0.063
GGUUAGCAAUAUUACGCUGG | -3.44 ± 0.47 | -1.59 ± 0.31
GGUUAGCAAUAUUACGGAAA | -1.53 ± 0.25 | -1.76 ± 0.22
GGUUAGCAAUAUUACGGAAG |  | -2.49 ± 0.36

Sequence | self-splicing fitness (ln) (30 °C) | self-splicing fitness (ln) (37 °C)
GGUUAGCAAUAUUACGGAGU | -1.27 ± 0.18 | -0.724 ± 0.2
GGUUAGCAAUAUUACGGAUG | -0.648 ± 0.1 | -0.92 ± 0.14
GGUUAGCAAUAUUACGGAUU | 0.0654 ± 0.078 | -0.0766 ± 0.092
GGUUAGCAAUAUUACGGCGA | -0.237 ± 0.09 | 0.106 ± 0.086
GGUUAGCAAUAUUACGGCGC | 0.645 ± 0.28 | -0.634 ± 0.25
GGUUAGCAAUAUUACGGGCG | 0.777 ± 0.094 | 0.208 ± 0.1
GGUUAGCAAUAUUACGUAAA | -1.22 ± 0.13 | -0.462 ± 0.2
GGUUAGCAAUAUUACGUCGG | -2.3 ± 0.36 | -1.7 ± 0.35
GGUUAGCAAUAUUACGUCGU | -0.855 ± 0.073 | 0.451 ± 0.11
GGUUAGCAAUAUUACGUCUC | -0.348 ± 0.15 | -0.0912 ± 0.18
GGUUAGCAAUAUUACGUGAG | -0.894 ± 0.098 | -0.197 ± 0.12
GGUUAGCAAUAUUACGUUCC | -1.45 ± 0.11 | -0.8 ± 0.12
GGUUAGCAAUAUUACGUUGU | -2.02 ± 0.15 | -1.71 ± 0.18
GUAAAGCAAUAUUACGAACA | -0.969 ± 0.15 | 0.323 ± 0.16
GUAAAGCAAUAUUACGAAGC | -1.89 ± 0.13 | -1.83 ± 0.22
GUAAAGCAAUAUUACGACCU | 0.443 ± 0.18 | 0.00961 ± 0.19
GUAAAGCAAUAUUACGACUG | -2.11 ± 0.2 | -1.48 ± 0.28
GUAAAGCAAUAUUACGAGGA | -1.81 ± 0.1 | -1.52 ± 0.15
GUAAAGCAAUAUUACGAGUU | -1.12 ± 0.093 | -0.815 ± 0.12
GUAAAGCAAUAUUACGAUAC | -0.815 ± 0.14 | -0.547 ± 0.16
GUAAAGCAAUAUUACGAUUC | 0.475 ± 0.08 | 0.115 ± 0.091
GUAAAGCAAUAUUACGCAAA | -0.784 ± 0.13 | -0.594 ± 0.16
GUAAAGCAAUAUUACGCAGU | -2.99 ± 0.18 | -1.06 ± 0.16
GUAAAGCAAUAUUACGCAUU | -1.76 ± 0.099 | -0.597 ± 0.11

Sequence | self-splicing fitness (ln) (30 °C) | self-splicing fitness (ln) (37 °C)
GUAAAGCAAUAUUACGCCGC | -2.48 ± 0.3 | -1.92 ± 0.35
GUAAAGCAAUAUUACGCCUU | -1.57 ± 0.11 | 0.238 ± 0.15
GUAAAGCAAUAUUACGCGUC | -1.05 ± 0.12 | -1.3 ± 0.14
GUAAAGCAAUAUUACGCUAA | -1.65 ± 0.087 | -0.135 ± 0.11
GUAAAGCAAUAUUACGCUCA | -0.138 ± 0.095 | 0.776 ± 0.14
GUAAAGCAAUAUUACGGAUU | -0.675 ± 0.079 | -0.288 ± 0.1
GUAAAGCAAUAUUACGGUUG | -2.91 ± 0.21 | -1.41 ± 0.2
GUAAAGCAAUAUUACGUCAG | -3.53 ± 0.32 | -1.83 ± 0.19
GUAAAGCAAUAUUACGUCUA | 0.446 ± 0.11 | 0.0339 ± 0.13
GUACAGCAAUAUUACGACGG | -3.75 ± 0.22 | -2.89 ± 0.21
GUACAGCAAUAUUACGAGCA | -1.59 ± 0.13 | -1.12 ± 0.13
GUACAGCAAUAUUACGAUAA | -1.95 ± 0.12 | -0.911 ± 0.13
GUACAGCAAUAUUACGCAAC | -2.08 ± 0.18 | -0.557 ± 0.17
GUACAGCAAUAUUACGCAAG | -2.59 ± 0.16 | -2.08 ± 0.17
GUACAGCAAUAUUACGCAUU | -2.76 ± 0.14 | -0.835 ± 0.087
GUACAGCAAUAUUACGCCCA | -1.14 ± 0.4 | 0.32 ± 0.36
GUACAGCAAUAUUACGCCGA |  | -1.96 ± 0.41
GUACAGCAAUAUUACGCGAA | -2.24 ± 0.13 | -2.22 ± 0.14
GUACAGCAAUAUUACGCGAC | -4.09 ± 0.28 | -1.87 ± 0.16
GUACAGCAAUAUUACGCGAU | -4.98 ± 0.46 | -2.71 ± 0.26
GUACAGCAAUAUUACGCGCU | -1.36 ± 0.13 | -0.689 ± 0.19
GUACAGCAAUAUUACGCGGG | -1.5 ± 0.092 | -2.71 ± 0.15
GUACAGCAAUAUUACGCUCG | -0.881 ± 0.13 | -0.344 ± 0.14
GUACAGCAAUAUUACGCUGC | -4.33 ± 0.26 | -2.74 ± 0.3

Sequence | self-splicing fitness (ln) (30 °C) | self-splicing fitness (ln) (37 °C)
GUACAGCAAUAUUACGGAAG | -1.45 ± 0.11 | -3.01 ± 0.25
GUACAGCAAUAUUACGGACC | -2.76 ± 0.13 | -2.1 ± 0.2
GUACAGCAAUAUUACGGGGU | -3.29 ± 0.16 | -2.34 ± 0.11
GUACAGCAAUAUUACGGUAA | -0.865 ± 0.13 | -0.97 ± 0.12
GUACAGCAAUAUUACGGUUC | -1.29 ± 0.074 | -0.703 ± 0.08
GUACAGCAAUAUUACGUCUU | -0.533 ± 0.079 | 0.628 ± 0.092
GUAGAGCAAUAUUACGAACA | -2.46 ± 0.17 | -0.783 ± 0.16
GUAGAGCAAUAUUACGACGU | -0.438 ± 0.16 | 0.352 ± 0.16
GUAGAGCAAUAUUACGACUG | -1.22 ± 0.15 | -1.12 ± 0.24
GUAGAGCAAUAUUACGAGCG | -0.682 ± 0.17 | -0.875 ± 0.21
GUAGAGCAAUAUUACGAUAG | -2.06 ± 0.15 | -1.42 ± 0.14
GUAGAGCAAUAUUACGAUCU | -0.617 ± 0.12 | -0.114 ± 0.15
GUAGAGCAAUAUUACGAUGC | -0.0786 ± 0.15 | -0.434 ± 0.13
GUAGAGCAAUAUUACGCAGC | -0.915 ± 0.17 | -2.37 ± 0.22
GUAGAGCAAUAUUACGCCCG | -2.15 ± 0.3 | -1.85 ± 0.3
GUAGAGCAAUAUUACGCGCG | -0.605 ± 0.07 | -0.12 ± 0.094
GUAGAGCAAUAUUACGGCGC | -0.386 ± 0.18 | -0.378 ± 0.22
GUAGAGCAAUAUUACGGCUG | -1.04 ± 0.13 | -0.584 ± 0.14
GUAGAGCAAUAUUACGGGAU | -2.01 ± 0.098 | -1.19 ± 0.12
GUAGAGCAAUAUUACGGUAC | -1.54 ± 0.12 | 0.127 ± 0.14
GUAGAGCAAUAUUACGGUGC | -1.15 ± 0.13 | -1 ± 0.19
GUAGAGCAAUAUUACGUAAC | -0.96 ± 0.11 | -0.246 ± 0.14
GUAGAGCAAUAUUACGUACU | -2.23 ± 0.24 | -1.92 ± 0.24
GUAGAGCAAUAUUACGUAGG | -3.28 ± 0.17 | -1.96 ± 0.17
